The numbers were not newly measured in PMC10299133, which cites them from elsewhere.

The target of the data set is MET (Homo sapiens) (UniProt P08581).
MET (Homo sapiens), sequence (P08581 25-932): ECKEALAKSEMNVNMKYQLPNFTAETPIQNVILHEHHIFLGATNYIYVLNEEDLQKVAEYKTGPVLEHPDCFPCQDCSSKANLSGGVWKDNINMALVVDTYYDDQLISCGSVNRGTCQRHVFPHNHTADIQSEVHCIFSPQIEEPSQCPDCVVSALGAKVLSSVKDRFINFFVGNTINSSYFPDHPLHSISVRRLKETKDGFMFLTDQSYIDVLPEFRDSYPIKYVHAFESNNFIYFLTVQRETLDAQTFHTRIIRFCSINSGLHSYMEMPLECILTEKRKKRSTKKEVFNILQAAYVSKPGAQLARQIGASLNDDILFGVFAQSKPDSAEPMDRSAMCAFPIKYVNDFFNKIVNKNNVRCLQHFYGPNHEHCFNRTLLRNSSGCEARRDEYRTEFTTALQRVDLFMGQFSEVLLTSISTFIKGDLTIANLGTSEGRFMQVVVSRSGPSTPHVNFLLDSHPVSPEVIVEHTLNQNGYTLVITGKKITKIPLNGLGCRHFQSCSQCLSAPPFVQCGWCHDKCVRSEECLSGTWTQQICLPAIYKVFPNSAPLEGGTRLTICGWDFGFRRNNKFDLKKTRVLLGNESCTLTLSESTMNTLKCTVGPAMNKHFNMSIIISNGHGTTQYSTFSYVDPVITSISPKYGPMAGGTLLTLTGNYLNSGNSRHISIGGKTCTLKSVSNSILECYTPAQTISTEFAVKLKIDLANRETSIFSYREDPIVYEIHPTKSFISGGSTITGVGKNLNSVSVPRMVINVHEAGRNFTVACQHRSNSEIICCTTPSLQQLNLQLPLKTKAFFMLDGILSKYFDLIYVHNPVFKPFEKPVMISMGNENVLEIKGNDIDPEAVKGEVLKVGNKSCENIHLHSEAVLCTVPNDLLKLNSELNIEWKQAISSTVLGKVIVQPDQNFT

Take amivantamab: the Kd was 40 pM.

A word on the Kd: it is the constant that tells how readily two partners part at equilibrium.
